# Measurements taken from US20030125257.
# B1: purified full-length human BACE with six C-terminal His residues, expressed in Sf9 insect cells (protein)
# chain: ETDEEPEEPGRRGSFVEMVDNLRGKSGQGYYVEMTVGSPPQTLNILVDTGSSNFAVGAAPHPFLHRYYQRQLSSTYRDLRKGVYVPYTQGKWEGELGTDLVSIPHGPNVTVRANIAAITESDKFFINGSNWEGILGLAYAEIARPDDSLEPFFDSLVKQTHVPNLFSLQLCGAGFPLNQSEVLASVGGSMIIGGIDHSLYTGSLWYTPIRREWYYEVIIVRVEINGQDLKMDCKEYNYDKSIVDSGTTNLRLPKKVFEAAVKSIKAASSTEKFPDGFWLGEQLVCWQAGTTPWNIFPVISLYLMGEVTNQSFRITILPQQYLRPVEDVATSQDDCYKFAISQSSTGTVMGAVIMEGFYVVFDRARKRIGFAVSACHVHDEFRTAAVEGPFVTLDMEDCGYNIPQTDESTLMTIAYVMAAICALFMLPLCLMVCQWRCLRCLRQQHDDFADDISLLKHHHHHH
# Target: 19 peptidomimetic BACE inhibitors
protein,measurement,value
B1,FRET assay (proteolytic activity of beta-secretase),test compounds inhibiting the binding of a tagged beta-secretase to beta-secretase also inhibit the proteolytic activity of beta-secretase leading to production of A-beta over a broad range of IC-50 values
